Test results taken from US20220098256A1 (TOKUSHIMA UNIVERSITY, published 2022).
Positions of bridges follow the written chain, without caps; N, C: chain ends. Non-standard residues stand in square brackets, D forms with d. No end group written: not given here. Nle = CCCC[C@H](N)C(=O)O

Legend:
[1] = molecular target: brefeldin A-inhibited guanine nucleotide-exchange protein 3 (BIG3) (human) (UniProt Q5TH69); assay: co-immunoprecipitation with anti-BIG3 antibody from peptide-treated MCF-7 cells, PHB2 immunoblot, band area against untreated cells; 50 µM each peptide
Chain of brefeldin A-inhibited guanine nucleotide-exchange protein 3 (BIG3) (human) (Q5TH69 whole entry): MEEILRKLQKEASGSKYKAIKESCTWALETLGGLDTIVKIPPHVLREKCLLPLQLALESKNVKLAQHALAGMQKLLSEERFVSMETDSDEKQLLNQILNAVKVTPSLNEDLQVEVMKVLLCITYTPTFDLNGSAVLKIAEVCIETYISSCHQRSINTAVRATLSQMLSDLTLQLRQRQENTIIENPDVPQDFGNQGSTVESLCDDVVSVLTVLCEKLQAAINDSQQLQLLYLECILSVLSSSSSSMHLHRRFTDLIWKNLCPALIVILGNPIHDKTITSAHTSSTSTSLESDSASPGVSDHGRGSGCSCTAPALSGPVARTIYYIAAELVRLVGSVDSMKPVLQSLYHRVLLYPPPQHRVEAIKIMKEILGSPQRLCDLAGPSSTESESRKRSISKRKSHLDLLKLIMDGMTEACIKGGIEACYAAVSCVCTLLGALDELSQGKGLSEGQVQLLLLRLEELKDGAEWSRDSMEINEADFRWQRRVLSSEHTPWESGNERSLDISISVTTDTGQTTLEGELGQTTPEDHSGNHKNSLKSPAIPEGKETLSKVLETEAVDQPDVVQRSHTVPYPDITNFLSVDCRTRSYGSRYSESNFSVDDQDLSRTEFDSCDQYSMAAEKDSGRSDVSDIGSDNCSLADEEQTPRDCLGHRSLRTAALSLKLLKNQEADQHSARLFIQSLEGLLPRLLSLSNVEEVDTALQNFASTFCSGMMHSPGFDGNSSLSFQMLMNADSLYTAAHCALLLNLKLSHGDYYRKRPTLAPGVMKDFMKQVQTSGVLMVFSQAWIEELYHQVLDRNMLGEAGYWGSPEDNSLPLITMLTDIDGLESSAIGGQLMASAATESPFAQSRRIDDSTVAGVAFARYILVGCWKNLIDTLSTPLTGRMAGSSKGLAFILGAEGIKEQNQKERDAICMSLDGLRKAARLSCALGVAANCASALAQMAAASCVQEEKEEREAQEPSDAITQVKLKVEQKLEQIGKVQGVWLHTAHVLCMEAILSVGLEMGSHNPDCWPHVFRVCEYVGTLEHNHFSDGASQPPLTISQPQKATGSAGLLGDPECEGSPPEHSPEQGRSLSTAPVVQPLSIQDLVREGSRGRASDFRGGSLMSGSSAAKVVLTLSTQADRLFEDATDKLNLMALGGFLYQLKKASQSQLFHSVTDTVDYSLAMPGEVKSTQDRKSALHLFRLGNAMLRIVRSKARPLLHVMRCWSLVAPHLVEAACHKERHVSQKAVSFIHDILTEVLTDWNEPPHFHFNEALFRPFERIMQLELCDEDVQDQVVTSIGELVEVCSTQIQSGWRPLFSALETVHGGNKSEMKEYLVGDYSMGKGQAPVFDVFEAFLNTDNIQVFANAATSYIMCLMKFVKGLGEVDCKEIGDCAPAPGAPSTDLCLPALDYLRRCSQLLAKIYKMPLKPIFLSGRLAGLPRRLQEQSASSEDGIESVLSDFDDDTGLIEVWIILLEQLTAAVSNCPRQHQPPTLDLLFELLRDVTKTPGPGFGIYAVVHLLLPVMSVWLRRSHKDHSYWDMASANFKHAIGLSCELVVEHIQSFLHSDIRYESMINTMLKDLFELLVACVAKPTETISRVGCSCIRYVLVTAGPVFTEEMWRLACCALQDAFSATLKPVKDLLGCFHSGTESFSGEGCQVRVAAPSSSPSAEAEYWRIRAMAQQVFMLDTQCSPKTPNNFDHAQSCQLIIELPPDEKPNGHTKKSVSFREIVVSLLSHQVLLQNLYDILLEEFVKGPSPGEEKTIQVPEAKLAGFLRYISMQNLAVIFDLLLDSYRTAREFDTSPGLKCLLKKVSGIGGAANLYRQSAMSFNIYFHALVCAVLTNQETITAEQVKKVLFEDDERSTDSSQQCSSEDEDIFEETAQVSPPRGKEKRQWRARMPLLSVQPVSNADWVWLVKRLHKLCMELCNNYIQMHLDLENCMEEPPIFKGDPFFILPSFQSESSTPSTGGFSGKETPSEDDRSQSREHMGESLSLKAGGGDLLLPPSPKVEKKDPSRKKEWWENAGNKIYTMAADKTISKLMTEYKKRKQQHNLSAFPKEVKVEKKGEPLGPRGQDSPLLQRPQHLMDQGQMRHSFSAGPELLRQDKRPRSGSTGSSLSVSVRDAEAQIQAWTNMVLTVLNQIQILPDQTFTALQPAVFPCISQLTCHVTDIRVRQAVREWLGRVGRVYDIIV

[2] = molecular target: brefeldin A-inhibited guanine nucleotide-exchange protein 3 (BIG3) (human) (UniProt Q5TH69); assay: cell-based or functional assay
[3] = molecular target: brefeldin A-inhibited guanine nucleotide-exchange protein 3 (BIG3) (human) (UniProt Q5TH69); assay: co-immunoprecipitation from peptide-treated MCF-7 cells, Western blotting; 10 µM each peptide
[4] = molecular target: brefeldin A-inhibited guanine nucleotide-exchange protein 3 (BIG3) (human) (UniProt Q5TH69); assay: co-immunoprecipitation with anti-BIG3 antibody from peptide-treated MCF-7 cells, PHB2 immunoblot, band area against untreated cells; 50 µM peptide
[5] = molecular target: brefeldin A-inhibited guanine nucleotide-exchange protein 3 (BIG3) (human, UniProt Q5TH69 1-2177); assay: cell-based or functional assay
Chain of brefeldin A-inhibited guanine nucleotide-exchange protein 3 (BIG3) (Q5TH69 whole entry): as above

In the case of “combination of PHB2 peptides No. 1 (11-22aa) and No. 5 (76-90aa)”, the inhibition ratio of the binding between BIG3 and PHB2 [1] is reported as 87%, the Ser39 phosphorylation of PHB2, band intensity compared to ERAP treatment [2] is reported as 70% and the growth suppressive effect on E2-dependent growth of MCF-7 [2] is reported as 88%. The suppression of E2-dependent growth of MCF-7, 10 µM each [2] was 100%, the suppression of growth of MDA-MB-231, both peptides at their IC50, 96 h [2] was 62% and the inhibition ratio of the interaction between BIG3 and PHB2 [3] was 67%.

“PHB2 sequence-derived peptide No. 5 (76-90aa)” gave an IC50 against growth of triple-negative breast cancer cell line MDA-MB-231, 96 h [2] of 0.273 µM, a Ser39 phosphorylation of PHB2, band intensity compared to ERAP treatment [2] of 20% and a suppression of growth of MDA-MB-231, peptide alone at its IC50, 96 h [2] of 50%. The suppression ratio of E2-dependent growth of MCF-7, 10 µM, 24 h [2] was 51%, the suppression ratio of E2-dependent growth of MCF-7, peptide alone [2] was 55% and the suppression ratio of estrogen (E2)-dependent growth of MCF-7, 10 µM, 24 h [2] was 49%. The suppression ratio of estrogen-dependent growth of MCF-7, 10 µM, 24 h [2] was 54% and the inhibition ratio of the binding between BIG3 and PHB2 [4] was 80%.

Work on “combination of cyclic PHB2 peptides 11-21aa and 76-88aa” yielded a suppression of E2-dependent growth of MCF-7, 4 µM cyclic 11-21aa and 2 µM cyclic 76-88aa, 24 hours [2] of 82%, a suppression ratio of E2-dependent growth of MCF-7, 4 µM cyclic 11-21aa and 2 µM cyclic 76-88aa, up to 96 hours [2] of 88% and a suppression ratio of E2-dependent growth of MCF-7, 10 µM each, 24 h [2] of 96%. The inhibition ratio of the interaction between BIG3 and PHB2 [3] was 81%.

With “PHB2 sequence-derived peptide No. 1 (11-22aa)” the IC50 against growth of triple-negative breast cancer cell line MDA-MB-231, 96 h [2] was 0.462 µM, the Ser39 phosphorylation of PHB2, band intensity compared to ERAP treatment [2] was 40% and the suppression of estrogen-dependent growth of MCF-7, 10 µM, 24 h [2] was 65%. For the same molecule, the suppression of growth of MDA-MB-231, peptide alone at its IC50, 96 h [2] was 50%, the suppression ratio of E2-dependent growth of MCF-7, 10 µM, 24 h [2] was 63% and the suppression ratio of E2-dependent growth of MCF-7, peptide alone [2] was 65%. It also gave a suppression ratio of estrogen (E2)-dependent growth of MCF-7, 10 µM, 24 h [2] of 58% and an inhibition ratio of the binding between BIG3 and PHB2 [4] of 64%.

With ESVFTVEGGHRAIRRRRRRRR-NH2 [PHB2 sequence-derived peptide No. 3 (38-50aa)] the “suppression ratio of estrogen-dependent growth of MCF-7, 10 µM, 24 h” value [5] was 17%.

B1: cyclic PHB2 peptide 11-21aa (peptide)
peptide: CRLPAGPRG[Nle]GTCF[Nal]RRRR
modifications: disulfide 1-13; not fully specified; also: amide bond between the added C-terminal and N-terminal residues (cyclic)
B1 was tested, and the “IC50 for E2-dependent growth of MCF-7” value [5] was 4.06 µM, the “suppression ratio of E2-dependent growth of MCF-7, 4 µM, up to 96 hours” value [5] was 41% and the “suppression ratio of E2-dependent growth of MCF-7, 10 µM, 24-hour treatment” value [5] was 53%. The “suppression ratio of E2-dependent growth of MCF-7, 10 µM, after 96 hours” value [5] was 67%.

B2: cyclic PHB2 peptide 76-88aa (peptide)
peptide: CQYPIIYDIRARPRCF[Nal]RRRR
modifications: disulfide 1-15 (inferred); not fully specified; also: X17: an unnatural amino acid, amide bond between the added C-terminal and N-terminal residues (cyclic)
With B2 the “IC50 for E2-dependent growth of MCF-7” value [5] was 2.11 µM, the “suppression ratio of E2-dependent growth of MCF-7, 2 µM, up to 96 hours” value [5] was 59% and the “suppression ratio of E2-dependent growth of MCF-7, 10 µM, 24-hour treatment” value [5] was 58%. The “suppression ratio of E2-dependent growth of MCF-7, 10 µM, after 96 hours” value [5] was 72%.

In the case of GPRGMGTALKLL (not fully specified (C-terminus)) [PHB2 sequence-derived peptide No. 40], the “suppression ratio of E2-dependent growth of MCF-7, in combination with 10 µM No. 5 (76-90aa)” value (“suppression ratio … with 10 µM No. 5 (76-90aa)” for short) [5] is reported as ≥ 90%.

AGRLPAGPRGMG (not fully specified (C-terminus)) [PHB2 sequence-derived peptide No. 38] was tested, and the “suppression ratio … with 10 µM No. 5 (76-90aa)” value [5] was ≥ 90%.

For RLPA[dL]PR[dL]MGTARRRRRRRR (not fully specified (C-terminus)) [PHB2 peptide 11-22aa with glycines at positions 15 and 18 substituted with D-leucines], the “suppression ratio of estrogen-dependent growth of MCF-7” value [5] was ~65%.

QYPIIADIRARPRKI (not fully specified (C-terminus)) [alanine-mutated PHB2 peptide No. 72] was tested, and the “suppression ratio of estrogen-dependent growth of MCF-7, 10 µM, 24 h” value [5] was 37%.

In the case of QYPIAYDIRARPRKI (not fully specified (C-terminus)) [alanine-mutated PHB2 peptide No. 71], the “suppression ratio of estrogen-dependent growth of MCF-7, 10 µM, 24 h” value [5] is reported as 38%.

B3: PHB2 peptide 11-90aa (peptide)
peptide: RLPAGPRGMGTALKLLLGAGAVAYGVRESVFTVEGGHRAIFFNRIGGVQQDTILAEGLHFRIPWFQYPIIYDIRARPRKI
B3 was tested, and the “Ser39 phosphorylation of PHB2, relative to ERAP treatment” value [5] was 30% and the “suppression ratio of E2-dependent growth of MCF-7, 24 h, 50 µM” value [5] was 57%.

In the case of RPRKISSPTGSKDLQRRRRRRRR-NH2 [PHB2 sequence-derived peptide No. 6 (86-100aa)], the “suppression ratio of E2-dependent growth of MCF-7, peptide alone” value [5] is reported as ~10%.

In the case of RLPAGPRAMGTA (not fully specified (C-terminus)) [alanine-mutated PHB2 peptide No. 62], the “suppression ratio of estrogen-dependent growth of MCF-7, 10 µM, 24 h” value [5] is reported as 8%.

EGGHRAIFFNRIGG (not fully specified (C-terminus)) [PHB2 sequence-derived peptide No. 82] was tested, and the “suppression ratio of estrogen-dependent growth of MCF-7, 10 µM, 24 h” value [5] was 59%.

With DLAGRLPAGPRG (not fully specified (C-terminus)) [PHB2 sequence-derived peptide No. 37] the “suppression ratio … with 10 µM No. 5 (76-90aa)” value [5] was ≥ 90%.

QYPIIYAIRARPRKI (not fully specified (C-terminus)) [alanine-mutated PHB2 peptide No. 73] was tested, and the “suppression ratio of estrogen-dependent growth of MCF-7, 10 µM, 24 h” value [5] was 13%.

For LKDLAGRLPAGP (not fully specified (C-terminus)) [PHB2 sequence-derived peptide No. 36], the “suppression ratio … with 10 µM No. 5 (76-90aa)” value [5] was ≥ 90%.

In the case of RLPAAPRGMGTA (not fully specified (C-terminus)) [alanine-mutated PHB2 peptide No. 59], the “suppression ratio of estrogen-dependent growth of MCF-7, 10 µM, 24 h” value [5] is reported as 19%.

In the case of ESVFTVEGGHRAIFFNRIGG (not fully specified (C-terminus)) [PHB2 sequence-derived peptide No. 83], the “suppression ratio of estrogen-dependent growth of MCF-7, 10 µM, 24 h” value [5] is reported as 61%.

For PAGPRGMGTALK (not fully specified (C-terminus)) [PHB2 sequence-derived peptide No. 39], the “suppression ratio … with 10 µM No. 5 (76-90aa)” value [5] was ≥ 90%.

TVEGGHRAIRRRRRRRR-NH2 [PHB2 sequence-derived peptide No. 2 (42-50aa)] was tested, and the “suppression ratio of estrogen-dependent growth of MCF-7, 10 µM, 24 h” value [5] was 20%.
